B1: Protein S100-G, residues 1 to 79; numbered along this chain, P02633 (parent)
chain: MSAKKSPEELKGIFEKYAAKEGDPNQLSKEELKLLLQTEFPSLLKGPSTLDELFEELDKNGDGEVSFEEFQVLVKKISQ
B2: Nuclear receptor subfamily 1 group D member 2, residues 103 to 171; numbered along this chain, Q14995 (parent)
chain: CKVCGDVASGFHYGVHACEGCKGFFRRSIQQNIQYKKCLKNENCSIMRMNRNRCQQCRFKKCLSVGMSR

Variants of: B1
Test: abundance fitness (aPCA) (normalised: wild type 0, dead -1); higher = more abundant; growth selection in yeast, the domain comes from the species named
Conditions: Bos taurus

Abundance fitness of substitutions, site by site:
G12: M -0.002, F -0.01, K 0.029, R 0.046, E -0.165, D 0.067, N 0.001, W -0.082, Y -0.045, I 0.088, H 0.064, T 0.068, L -0.009, Q -0.059, P -0.048, V 0.031
K11: E -0.063, M -0.151, W -0.294, Q -0.04, C -0.202, R -0.185, Y -0.124, L -0.096, H -0.14, F 0.023, T -0.197, P -0.373, G -0.176, A -0.157, I -0.002, D -0.369
S2: A -0.138, D 0.116, W -0.118, K 0.225, E -0.105, F 0.073, T 0.102, H -0.09, M 0.279, V 0.085, Q 0, G 0.039, L -0.015, N 0.094, I 0.144, P -0.699
I13: D -0.436, C -0.093, E -0.386
A3: F 0.103, L 0.007, Q -0.01, I 0.077, K -0.133, G -0.09, C 0.061, S -0.123, T -0.053, W -0.178, D 0.066, H -0.049, V 0.129, E -0.095, N 0.03, P -0.137, M 0.013
M1: G -0.267, S -0.368, Q -0.678, K -0.245, Y -0.501, I 0.027, V -0.313, P -1.34, H -1.42, A -0.572, L -0.378, W -0.667, F -0.193, D -0.392, N -0.186, E -0.552, R -0.631
E8: P -0.163, W -0.243, H -0.148, Y -0.101, A -0.054, S -0.106, K -0.004, F -0.079, N -0.11, I -0.029, D -0.125, R -0.048, L -0.029, T -0.046, M 0.014, Q 0.033, V -0.051, C -0.361, G -0.049
K4: L 0.051, Q -0.06, N 0.067, P -0.097, F 0, G -0.223, V -0.145, E -0.154, M -0.023, H -0.004, W -0.343, A -0.337, S -0.005, C -0.222, Y 0.01, D 0.092, T 0.06
K5: P -0.253, N -0.063, V -0.126, H -0.163, E -0.105, T 0, W -0.575, Q -0.222, F -0.015, S -0.03, Y 0.025, R -0.154, C -0.252, I 0.045, A -0.037, M -0.017
E9: R -0.179, C -0.177, Q 0.055, N -0.03, T -0.073, L -0.073, I -0.111, S -0.073, F -0.128, M -0.035, D 0.063, P -0.211, Y -0.023, V -0.062, K -0.061, A -0.132, H -0.094, G -0.108
P7: T 0.066, S 0.02, W -0.09, R -0.079, E 0.037, D -0.119, H -0.067, Y 0.063, G -0.121, N -0.056, M 0.058, C -0.021, L 0.013, V -0.058, F -0.066, K -0.062
S6: D -0.071, V -0.203, C -0.398, L -0.15, R -0.232, E -0.159, A -0.227, G -0.103, M -0.111, N -0.161, I -0.121, Q -0.076, F -0.054, W -0.372, Y -0.264, T -0.03, K -0.204, H -0.119
L10: P -0.383, V -0.081, W -0.076, E -0.202, F -0.048, Y -0.038, C -0.536, R -0.488, I -0.039, S -0.221, A -0.09, Q -0.104, T -0.174, N -0.31, K -0.401, H -0.155, D -0.322, M 0.044

Variants of: B2
Test: as above
Conditions: Homo sapiens

Abundance fitness: each site, then its substitutions
V65: Y -0.234, W -1.02, P -0.814, A -0.306, S -0.291, F -0.739, I -0.308, C -0.571, L -0.708, M -0.012, T -0.536, R -0.895, K -0.851, Q -0.733, D -0.601
S64: H -0.449, V -0.107, N -0.36, G -0.481, L 0.044, D -0.051, I -0.911, A -0.048, Y -0.512, T -0.002, F -0.545, K 0.236, E 0.346, R -0.334, M -0.072, P -0.857, C -0.469, Q 0.12
L63: M -0.914, V -0.502, R -0.991, A -0.071, T -0.523, Q -0.329, K -0.8, G -0.92, P -0.789, E -0.121, I 0.268, N -0.911
K60: W 0.021, S -0.284, V -0.249, N -0.056
R69: Q 0.07, G 0.112, W 0.288, P 0.28, Y -0.083, A 0.233, D -0.404, V 0.327, E 0.008, L 0.143, T 0.451, F 0.483, S 0.176, M 0.318, C -0.013
C62: G -0.857, M -0.336, L -0.875, T -0.948, A -0.015, P -0.843, E -0.456, Y -0.492, S -0.757, R -0.667, V -0.665, N -0.812
S68: T -0.018, C -0.097, N 0.186, D -0.049, V -0.526, F -0.561, K -0.01, Q 0.314, P -0.768, G -0.125, R -0.354, I -0.111, L -0.584, A 0.029, E -0.087, M -0.023, H -0.347
K61: A -0.328, Y -0.547, C -0.717, H -0.681, E -0.414, T -0.652, L -0.422, V -0.886, S -0.769, F -0.608, Q -0.647, G -0.385, W -0.746, P -0.905, M -0.776
G66: D -0.866, F -0.562, M -0.574, V -0.798, P -0.802, L -0.459
M67: S -0.925, Y -0.558, H -0.973, E -0.483, W -0.415, A -0.574, K -0.688, D 0.029, R -0.241, V -0.794, T -0.822, G -0.744, L -0.817
